For data set [1], the system named is ovarian cancer stem cell line A2780-SP cells. The data set can be described thus: Affinity of CD166 aptamer to ovarian cancer stem cells by flow cytometry (FACS). The data set is classed as binding. The conditions noted are these: for affinity: as found in Example 8 (FACS). As for the experimental part: It was confirmed whether the CD166 aptamer constructed in Example 7 recognized ovarian cancer cells and ovarian cancer stem cells. The following experiment was performed to analyze the interaction between the CD166 aptamer and the ovarian cancer cell line A2780 cells. First, each of the CD166 aptamer (AT-1, AT-2, AT-3, AT-4, AT-5 and AT-6) was dissolved in sterile tertiary water and then heated at 95° C. for 5 minutes. After heating, it was cooled to 25° C. The aptamer was added to the ovarian cancer cell line A2780 cells at a concentration of 500 nM, and then the cells were cultured at room temperature and stained. Thereafter, the cells reacted with the CD166 aptamer were analyzed using a flow cytometer (fluorescence activated cell sorter, FACS), and the results are shown in FIG. 18.
In addition, in the same manner as described above, the ovarian cancer stem cell line A2780-SP cells were reacted with the CD166 aptamer, and then FACS was performed, and the results are shown in FIG. 19.
The affinity of the CD166 aptamer AT-5 and the CD166 FACS antibody (PE Mouse Anti-Human CD166, Cat:559263, BD Pharminggen) as the control to the ovarian cancer stem cell line A2780-SP cells was compared.
(In general: Flow cytometry measures light scatter and fluorescence of single cells or particles in a stream.)

The test system of data set [2] is CD166 expressing cells isolated from ovarian cancer stem cells. The data set can be described thus: Cell adhesion experiment, CD166 expressing ovarian cancer stem cells. The conditions noted are these: aptamer 500 nM, 1 hour, collagen-coated plate, FIG. 21. The data set is classed as cell-based. The procedure: The effect of the CD166 aptamer on cell adhesion ability was confirmed using the CD166 aptamers AT3, AT4 and AT5. Specifically, CD166 expressing cells were isolated from ovarian cancer stem cells using the CD166 FACS antibody. Cell adhesion experiment of the CD166 aptamer was performed using the isolated cells. First, […] blocked with 20 μg/ml of collagen for 1 hour. After blocking, 0.1% bovine serum albumin (BSA) was added and incubated for 1 hour to limit non-specific binding. The isolated cells were each exposed to the CD166 aptamer (500 nM) for 1 hour and then fixed with 4% formaldehyde. The fixed cells were stained with hoest33342.

Data set [3] has as its system CD166-high cells of ovarian cancer stem cell line A2780-SP. The data set can be described thus: Tumor formation from aptamer-treated A2780-SP cells inoculated subcutaneously. It is filed as in vivo, nude mice. As for the experimental part:
The effect of the CD166 aptamer AT-5 on tumor formation was confirmed. Specifically, cells in which the expression CD166 is high were isolated from the ovarian cancer stem cell line A2780-SP using a flow cytometer (ARIA3). The isolated cells were reacted with the CD166 aptamer AT-5 for 1 hour, respectively. The cells reacted with the aptamer (1×10^5 cells) were inoculated subcutaneously into nude mice. At this time, the aptamer-untreated cells were inoculated on the left side of nude mice, and the CD166 aptamer AT-5-treated cells were inoculated on the right side of nude mice. After inoculation, the tumor formation size was measured from the 18th day. Nude mice were euthanized on the 38th day of inoculation. Tumors were isolated from nude mice, and finally, the weight and size of the tumors were measured. The results of observation of the isolated tumors are shown in FIG. 26, the results of measuring the size of the tumors are shown in FIG. 27, and the results of measuring the weight of the tumors are shown in FIG. 28, respectively.

Data set [4] relates to patient-derived ovarian cancer stem cells. The data set can be described thus: Affinity of CD166 aptamer to patient-derived ovarian cancer stem cells (FACS). The note with it: FIG. 36A. The data set is classed as binding.
Data set [5] has as its system focal adhesion signaling pathway in patient-derived ovarian cancer stem cells. The data set can be described thus: Focal adhesion signaling pathway by Western blotting, patient-derived ovarian cancer stem cells. The data set is classed as cell-based. The note with it: aptamer 1 hour, FIG. 39. The source says:
(§1) CD166 expression was inhibited using siRNA in the ovarian cancer stem cell line A2780-SP, and the focal adhesion signaling pathway was confirmed in CD166 expression-inhibited cells through Western blotting. Specifically, in order to inhibit the expression of CD166, the control (si Control) (5′-UUCUCCGAACGUGUCACGUTT-3′ (SEQ ID NO: 23); 5′-ACGUGACACGUUCGGAGAATT-3′ (SEQ ID NO: 24) and si CD166 (5′-AAGCCCGAUGGCUCCCCAGUAUU-3′ (SEQ ID NO: 25); 5′-AAUACUGGGGAGCCAUCGGGCUU-3′ (SEQ ID NO: 26) were constructed. The expression of CD166 was inhibited by reacting the constructed siRNA and the ovarian cancer stem cell line A2780-SP cells, and the cells were cultured after inhibition of expression. After culturing for 48 hours, the cells were collected, and protein expression of FAK, SRC, Paxillin and CD44, which are known as major genes of the focal adhesion signaling pathway, was confirmed through Western blotting. Antibodies against CD166 (ab109215, Abcam), CD44 (5640S, Cell Signaling Technology), p-PAXILLIN (2541S, Cell Signaling Technology), p-SRC (2101S, Cell Signaling Technology), p-FAK (3284S, Cell Signaling Technology), FAK (3285S, Cell Signaling Technology) and GAPDH (MAB374, EMD Milliore Corp, Billerica, MA) were used as primary antibodies. The results of confirming the focal adhesion signaling pathway inhibitory activity in CD166 expression-inhibited cells are shown in FIG. 14.
The patient-derived ovarian cancer stem cells were reacted with the CD166 aptamers AT-3 and AT-5 for 1 hour, respectively, and then the focal adhesion signaling pathway was confirmed in CD166 expression-inhibited cells through Western blotting. The Western blotting was performed in the same manner as in Example 5.
(Immunoblotting shows a protein as a band on a membrane.)

For data set [6], the system named is focal adhesion signaling pathway in mesenchymal stem cells. Briefly: Focal adhesion signaling pathway by Western blotting, mesenchymal stem cells. The data set is classed as cell-based. The conditions noted are these: aptamer 1 hour, normal stem cells, FIG. 44.
Source text: as §1
The mesenchymal stem cells were reacted with the CD166 aptamer AT-5 for 1 hour, respectively, and then the focal adhesion signaling pathway was confirmed in CD166 expression-inhibited cells through Western blotting. The Western blotting was performed in the same manner as in Example 5. In addition, the focal adhesion signaling pathway by CD166 expression inhibition in the mesenchymal stem cells was confirmed by the method of Example 4, and the results are shown in FIG. 44.

[NapdU] = 5-(N-naphthylcarboxyamide)-2'-deoxyuridine

B1: AT4: 76-mer CD166 aptamer, N = NapdU: TCAGCCGCCAGCCAGTTCCNNCNAGAGNCANGCACGNNANCGGACCNGNCGGCGAANGGACCANANCACCACAGAG (nucleic acid)
DNA: TCAGCCGCCAGCCAGTTCCUUCUAGAGUCAUGCACGUUAUCGGACCUGUCGGCGAAUGGACCAUAUCACCACAGAG
modifications: DNA, [NapdU] at 20, 21, 23, 28, 31, 37, 38, 40, 47, 49, 57, 64, 66, backbone not given here
As to B1, the affinity result in data set [1] is “high affinity”. The cell adhesion result in data set [2] was “reduced”.

B2: AT5: 76-mer CD166 aptamer, N = NapdU: TCAGCCGCCAGCCAGTTCANNNGANAAAGCNCCGNNANCGGGCCCCNNGNAGAGNCANGACCAGAGCACCACAGAG (nucleic acid)
DNA: TCAGCCGCCAGCCAGTTCAUUUGAUAAAGCUCCGUUAUCGGGCCCCUUGUAGAGUCAUGACCAGAGCACCACAGAG
modifications: DNA, [NapdU] at 20, 21, 22, 25, 31, 35, 36, 38, 47, 48, 50, 55, 58, backbone not given here
Regarding B2, the “specificity of binding to ovarian cancer stem cells among the CD166 aptamers” value in data set [1] (500 nM, FACS, FIG. 19) is “most specifically binds”. Moreover, in data set [1], the affinity result is on record as “high affinity”. Besides, the cell adhesion entry in data set [2] is “reduced”. Moreover, the tumor formation entry in data set [3] (cells pre-reacted with aptamer 1 hour, 1×10^5 cells subcutaneous, nude mice, FIG. 26) is reported as “inhibited”. In data set [3] (vs aptamer untreated group, day 18 to 38, FIG. 27), the “size of the tumor” value is recorded as “smaller”. For the same molecule, in data set [3] (vs control, day 38, FIG. 28), the “weight of the tumor” value was “reduced significantly”. The “interaction with patient-derived ovarian cancer stem cells, signal intensity” value in data set [4] is “the signal intensity is high”. In data set [5], the “expression of p-PAXILLIN” value is on record as “inhibited”, the “expression of p-SRC” value was “inhibited” and the “expression of the p-FAK Y925 site” value is “reduced”. In addition, in data set [6], the “expression of p-PAXILLIN” value is “not affected”, the “expression of p-SRC” value is reported as “not affected” and the “expression of the p-FAK Y925 site” value is “not affected”.

The values above are taken from US12674167B2, “Aptamer specifically binding to cancer stem cells, and use thereof” (HiCELL Tech, priority 2019, dated 2026).
